Target: ATAD2 Walker B mutant (E532Q), aa 403-1390 (human) (UniProt Q6PL18)
Sequence (Q6PL18 403-1390 E532Q): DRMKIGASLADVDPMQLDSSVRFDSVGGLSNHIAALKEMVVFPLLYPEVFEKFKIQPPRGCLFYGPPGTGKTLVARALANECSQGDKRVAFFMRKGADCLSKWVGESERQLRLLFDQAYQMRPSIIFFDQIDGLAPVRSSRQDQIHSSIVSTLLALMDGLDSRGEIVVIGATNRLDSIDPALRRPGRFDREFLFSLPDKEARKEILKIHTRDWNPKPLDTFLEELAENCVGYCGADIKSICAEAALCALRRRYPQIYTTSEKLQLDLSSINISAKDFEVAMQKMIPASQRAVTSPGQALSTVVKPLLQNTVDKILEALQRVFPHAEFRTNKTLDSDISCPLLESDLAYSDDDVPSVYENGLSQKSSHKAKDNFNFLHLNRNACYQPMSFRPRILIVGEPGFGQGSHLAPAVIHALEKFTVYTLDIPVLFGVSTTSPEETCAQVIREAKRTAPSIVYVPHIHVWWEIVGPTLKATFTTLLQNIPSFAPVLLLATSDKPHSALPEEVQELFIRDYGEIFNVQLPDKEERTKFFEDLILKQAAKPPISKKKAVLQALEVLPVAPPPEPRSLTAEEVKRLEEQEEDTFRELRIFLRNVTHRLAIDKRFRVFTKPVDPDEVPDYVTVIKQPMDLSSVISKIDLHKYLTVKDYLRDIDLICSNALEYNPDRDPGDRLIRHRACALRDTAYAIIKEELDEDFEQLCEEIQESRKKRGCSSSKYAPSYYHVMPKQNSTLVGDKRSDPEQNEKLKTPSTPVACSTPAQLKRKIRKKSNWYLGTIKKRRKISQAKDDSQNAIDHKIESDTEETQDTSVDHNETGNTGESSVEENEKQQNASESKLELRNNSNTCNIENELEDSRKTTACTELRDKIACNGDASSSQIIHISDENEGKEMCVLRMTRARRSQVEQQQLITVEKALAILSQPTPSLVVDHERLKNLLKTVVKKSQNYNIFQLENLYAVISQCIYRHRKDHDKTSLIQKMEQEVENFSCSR

- HS-AFM: increase of the frequency of symmetry breaking of the ATAD2 Walker B hexameric ring (events per ring or per cumulative observation time) with H3/H4: 40%
- HS-AFM: reversibility of symmetry breaking of the ATAD2 Walker B hexameric ring, without and with H3/H4: 30%
Substance: Histone H3/H4 complex (X. laevis, wild type, refolded) (from UniProt P84233 1-136; P62799 1-103)
